Measured values: patent publication US20240400654A1
Positions count from the first letter of the chain named. In names and notes the source's numbering stands. Several values for one entry are separate records, joined by “and”; a condition that tells them apart may be missing. Identical values can stand only once.

B1: KB001 mouse Fab VL S27N (Fab, V domains shown)
VH: EVQLKQSGPGLVAPSQSLSITCTVSGFSLSIYSVHWVRQPPGKGLEWLGMIWGGGSSDYNSALKSRLSISKDNSKSQVFLKMNSLQTDDTAMYYCARNGNFYAMDYWGQGTSVTVSS
VL: QIVLTQSPAIMSASLGERVTMTCTASNSVSSSFLHWYQQKPGSSPQLWIYSTSNLASGVPARFSGSGSGTSYSLTISSMEAEDAATYYCHQYHHSPYIYTFGGGTKLEIK
B2: KB001 mouse Fab VL S27Y (Fab, V domains shown)
VH: B1 VH
VL: B1 VL with N27Y
B3: KB001 mouse Fab VL S32G (Fab, V domains shown)
VH: B1 VH
VL: B1 VL with N27S, S32G
B4: KB001 mouse Fab VL S28H (Fab, V domains shown)
VH: B1 VH
VL: B1 VL with N27S, S28H
B5: KB001 mouse Fab VL S27V (Fab, V domains shown)
VH: B1 VH
VL: B1 VL with N27V
B6: KB001 mouse Fab VL F33N (Fab, V domains shown)
VH: B1 VH
VL: B1 VL with N27S, F33N
B7: KB001 mouse Fab VL S30L (Fab, V domains shown)
VH: B1 VH
VL: B1 VL with N27S, S30L
B8: KB001 mouse Fab VL V29I (Fab, V domains shown)
VH: B1 VH
VL: B1 VL with N27S, V29I
B9: KB001 mouse Fab VL T52L (Fab, V domains shown)
VH: B1 VH
VL: B1 VL with N27S, T52L
B10: KB001 mouse Fab VL T52K (Fab, V domains shown)
VH: B1 VH
VL: B1 VL with N27S, T52K
B11: KB001 mouse Fab VL S31Q (Fab, V domains shown)
VH: B1 VH
VL: B1 VL with N27S, S31Q
B12: KB001 mouse Fab VL S30R (Fab, V domains shown)
VH: B1 VH
VL: B1 VL with N27S, S30R
B13: KB001 mouse Fab VL S30E (Fab, V domains shown)
VH: B1 VH
VL: B1 VL with N27S, S30E
B14: KB001 mouse Fab VL S27K/S68Y (Fab, V domains shown)
VH: B1 VH
VL: B1 VL with N27K, S68Y
B15: KB001 mouse Fab VL S28N (Fab, V domains shown)
VH: B1 VH
VL: B1 VL with N27S, S28N
B16: KB001 mouse Fab VL T52R (Fab, V domains shown)
VH: B1 VH
VL: B1 VL with N27S, T52R
B17: KB001 mouse Fab VL S27W (Fab, V domains shown)
VH: B1 VH
VL: B1 VL with N27W
B18: KB001 mouse Fab VL S30W (Fab, V domains shown)
VH: B1 VH
VL: B1 VL with N27S, S30W
B19: KB001 mouse Fab VL S28D (Fab, V domains shown)
VH: B1 VH
VL: B1 VL with N27S, S28D
B20: KB001 mouse Fab VL S30K (Fab, V domains shown)
VH: B1 VH
VL: B1 VL with N27S, S30K
B21: KB001 mouse Fab VL S30M (Fab, V domains shown)
VH: B1 VH
VL: B1 VL with N27S, S30M
B22: KB001 mouse Fab VL S30H (Fab, V domains shown)
VH: B1 VH
VL: B1 VL with N27S, S30H
B23: KB001 mouse Fab VL L34V (Fab, V domains shown)
VH: B1 VH
VL: B1 VL with N27S, L34V
B24: KB001 mouse Fab VL T52M (Fab, V domains shown)
VH: B1 VH
VL: B1 VL with N27S, T52M
B25: KB001 mouse Fab VL S27L (Fab, V domains shown)
VH: B1 VH
VL: B1 VL with N27L
B26: KB001 mouse Fab VL S32Q (Fab, V domains shown)
VH: B1 VH
VL: B1 VL with N27S, S32Q
B27: KB001 mouse Fab VL S32W (Fab, V domains shown)
VH: B1 VH
VL: B1 VL with N27S, S32W
B28: KB001 mouse Fab VL V29L (Fab, V domains shown)
VH: B1 VH
VL: B1 VL with N27S, V29L
B29: KB001 mouse Fab VL L34M (Fab, V domains shown)
VH: B1 VH
VL: B1 VL with N27S, L34M
B30: KB001 mouse Fab VL S31W (Fab, V domains shown)
VH: B1 VH
VL: B1 VL with N27S, S31W
B31: KB001 mouse Fab VL S30D (Fab, V domains shown)
VH: B1 VH
VL: B1 VL with N27S, S30D
B32: KB001 mouse Fab VL L34I (Fab, V domains shown)
VH: B1 VH
VL: B1 VL with N27S, L34I
B33: KB001 mouse Fab VL S32P (Fab, V domains shown)
VH: B1 VH
VL: B1 VL with N27S, S32P
B34: KB001 mouse Fab VL S27M (Fab, V domains shown)
VH: B1 VH
VL: B1 VL with N27M
B35: KB001 mouse Fab VL S30I (Fab, V domains shown)
VH: B1 VH
VL: B1 VL with N27S, S30I
B36: KB001 mouse Fab VL S32Y (Fab, V domains shown)
VH: B1 VH
VL: B1 VL with N27S, S32Y
B37: KB001 mouse Fab VL S32A (Fab, V domains shown)
VH: B1 VH
VL: B1 VL with N27S, S32A
B38: KB001 mouse Fab VL S31D (Fab, V domains shown)
VH: B1 VH
VL: B1 VL with N27S, S31D
B39: KB001 mouse Fab VL F33H (Fab, V domains shown)
VH: B1 VH
VL: B1 VL with N27S, F33H
B40: KB001 mouse Fab VL S28M (Fab, V domains shown)
VH: B1 VH
VL: B1 VL with N27S, S28M
B41: KB001 mouse Fab VL S30T (Fab, V domains shown)
VH: B1 VH
VL: B1 VL with N27S, S30T
B42: KB001 mouse Fab VL S28T/S12R (Fab, V domains shown)
VH: B1 VH
VL: B1 VL with S12R, N27S, S28T

Target: HRgpA-6H (Porphyromonas gingivalis) (UniProt P28784)
Experiment: ELISA, coated HRgpA-6H

Sequence of UniProt P28784 (P28784 228-860 limits assumed): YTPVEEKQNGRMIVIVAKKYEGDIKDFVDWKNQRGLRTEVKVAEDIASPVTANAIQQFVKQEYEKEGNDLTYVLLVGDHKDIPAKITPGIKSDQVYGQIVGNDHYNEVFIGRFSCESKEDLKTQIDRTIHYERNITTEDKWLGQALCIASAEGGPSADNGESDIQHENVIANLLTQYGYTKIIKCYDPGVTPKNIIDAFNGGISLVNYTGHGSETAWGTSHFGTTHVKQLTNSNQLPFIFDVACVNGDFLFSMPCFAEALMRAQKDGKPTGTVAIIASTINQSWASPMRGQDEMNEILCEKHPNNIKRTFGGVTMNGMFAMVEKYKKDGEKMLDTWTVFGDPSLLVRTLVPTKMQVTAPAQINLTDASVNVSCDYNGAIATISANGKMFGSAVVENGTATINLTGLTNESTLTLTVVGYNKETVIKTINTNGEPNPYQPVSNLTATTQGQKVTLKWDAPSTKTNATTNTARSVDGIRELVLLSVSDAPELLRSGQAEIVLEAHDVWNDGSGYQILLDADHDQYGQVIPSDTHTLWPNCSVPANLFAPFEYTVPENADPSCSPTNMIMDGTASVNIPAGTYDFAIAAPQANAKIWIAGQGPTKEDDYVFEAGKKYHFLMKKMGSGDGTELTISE

**Q.** For B1, which OD450 nm is on record?
**A.** 0.675 and 0.724 and 0.64

**Q.** What about the Ratio OD(Variant)/OD(WT) of the same binder?
**A.** 0.899 and 0.965 and 0.853

**Q.** How did the OD450 nm turn out when B2 was run?
**A.** 0.617

**Q.** What about the Ratio OD(Variant)/OD(WT) of the same binder?
**A.** 0.822

**Q.** For B3, which OD450 nm is on record?
**A.** 0.759

**Q.** And the Ratio OD(Variant)/OD(WT)?
**A.** 0.898

**Q.** With B4 as the binder, how does the OD450 nm read?
**A.** 0.719

**Q.** What about the Ratio OD(Variant)/OD(WT) of the same binder?
**A.** 0.958

**Q.** B5 was tested. Which OD450 nm did it give?
**A.** 0.645 and 0.646

**Q.** What about the Ratio OD(Variant)/OD(WT) of the same binder?
**A.** 0.859 and 0.861

**Q.** For B6, which OD450 nm is on record?
**A.** 0.64

**Q.** What about the Ratio OD(Variant)/OD(WT) of the same binder?
**A.** 0.844

**Q.** B7 was tested. Which OD450 nm did it give?
**A.** 0.813

**Q.** And the Ratio OD(Variant)/OD(WT)?
**A.** 0.943

**Q.** For B8, which OD450 nm is on record?
**A.** 0.853

**Q.** And the Ratio OD(Variant)/OD(WT)?
**A.** 0.99

**Q.** With B9 as the binder, how does the OD450 nm read?
**A.** 0.769

**Q.** What about the Ratio OD(Variant)/OD(WT) of the same binder?
**A.** 0.977

**Q.** How did the OD450 nm turn out when B10 was run?
**A.** 0.681

**Q.** What about the Ratio OD(Variant)/OD(WT) of the same binder?
**A.** 0.865

**Q.** What does the source list for B11?
**A.** OD450 nm: 0.83 and 0.745 and 0.782; Ratio OD(Variant)/OD(WT): 0.982 and 0.882 and 0.925

**Q.** Which results are given for B12?
**A.** OD450 nm: 0.778 and 0.793 and 0.802; Ratio OD(Variant)/OD(WT): 0.903 and 0.92 and 0.93

**Q.** Which OD450 nm does the source give for B13 here?
**A.** 0.813

**Q.** And the Ratio OD(Variant)/OD(WT)?
**A.** 0.943

**Q.** How did the OD450 nm turn out when B14 was run?
**A.** 0.736

**Q.** And the Ratio OD(Variant)/OD(WT)?
**A.** 0.981

**Q.** How did the OD450 nm turn out when B15 was run?
**A.** 0.743

**Q.** And the Ratio OD(Variant)/OD(WT)?
**A.** 0.99

**Q.** What does the source list for B16?
**A.** OD450 nm: 0.724 and 0.681 and 0.685; Ratio OD(Variant)/OD(WT): 0.919 and 0.865 and 0.87

**Q.** With B17 as the binder, how does the OD450 nm read?
**A.** 0.601

**Q.** What about the Ratio OD(Variant)/OD(WT) of the same binder?
**A.** 0.801

**Q.** How did the OD450 nm turn out when B18 was run?
**A.** 0.823

**Q.** What about the Ratio OD(Variant)/OD(WT) of the same binder?
**A.** 0.955

**Q.** What does the source list for B19?
**A.** OD450 nm: 0.745 and 0.722; Ratio OD(Variant)/OD(WT): 0.993 and 0.962

**Q.** For B20, which OD450 nm is on record?
**A.** 0.77

**Q.** What about the Ratio OD(Variant)/OD(WT) of the same binder?
**A.** 0.893

**Q.** Which OD450 nm does the source give for B21 here?
**A.** 0.818

**Q.** What about the Ratio OD(Variant)/OD(WT) of the same binder?
**A.** 0.949

**Q.** B22 was tested. Which OD450 nm did it give?
**A.** 0.808 and 0.747

**Q.** What about the Ratio OD(Variant)/OD(WT) of the same binder?
**A.** 0.937 and 0.867

**Q.** What does the source list for B23?
**A.** OD450 nm: 0.641 and 0.634; Ratio OD(Variant)/OD(WT): 0.846 and 0.836

**Q.** Which results are given for B24?
**A.** OD450 nm: 0.662; Ratio OD(Variant)/OD(WT): 0.841

**Q.** What does the source list for B25?
**A.** OD450 nm: 0.649; Ratio OD(Variant)/OD(WT): 0.865

**Q.** What does the source list for B26?
**A.** OD450 nm: 0.716; Ratio OD(Variant)/OD(WT): 0.847

**Q.** Which results are given for B27?
**A.** OD450 nm: 0.649; Ratio OD(Variant)/OD(WT): 0.856

**Q.** How did the OD450 nm turn out when B28 was run?
**A.** 0.751

**Q.** And the Ratio OD(Variant)/OD(WT)?
**A.** 0.871

**Q.** For B29, which OD450 nm is on record?
**A.** 0.736 and 0.741 and 0.714

**Q.** And the Ratio OD(Variant)/OD(WT)?
**A.** 0.971 and 0.978 and 0.911

**Q.** Which OD450 nm does the source give for B30 here?
**A.** 0.808

**Q.** What about the Ratio OD(Variant)/OD(WT) of the same binder?
**A.** 0.956

**Q.** With B31 as the binder, how does the OD450 nm read?
**A.** 0.702 and 0.723

**Q.** What about the Ratio OD(Variant)/OD(WT) of the same binder?
**A.** 0.814 and 0.839

**Q.** For B32, which OD450 nm is on record?
**A.** 0.67

**Q.** And the Ratio OD(Variant)/OD(WT)?
**A.** 0.884

**Q.** Which OD450 nm does the source give for B33 here?
**A.** 0.744

**Q.** What about the Ratio OD(Variant)/OD(WT) of the same binder?
**A.** 0.88

**Q.** How did the OD450 nm turn out when B34 was run?
**A.** 0.709

**Q.** And the Ratio OD(Variant)/OD(WT)?
**A.** 0.945

**Q.** Which results are given for B35?
**A.** OD450 nm: 0.86; Ratio OD(Variant)/OD(WT): 0.998

**Q.** With B36 as the binder, how does the OD450 nm read?
**A.** 0.753

**Q.** What about the Ratio OD(Variant)/OD(WT) of the same binder?
**A.** 0.891

**Q.** For B37, which OD450 nm is on record?
**A.** 0.748 and 0.805

**Q.** What about the Ratio OD(Variant)/OD(WT) of the same binder?
**A.** 0.885 and 0.953

**Q.** Which results are given for B38?
**A.** OD450 nm: 0.762; Ratio OD(Variant)/OD(WT): 0.902

**Q.** What does the source list for B39?
**A.** OD450 nm: 0.736; Ratio OD(Variant)/OD(WT): 0.971

**Q.** B40 was tested. Which OD450 nm did it give?
**A.** 0.706 and 0.675

**Q.** What about the Ratio OD(Variant)/OD(WT) of the same binder?
**A.** 0.941 and 0.899

**Q.** How did the OD450 nm turn out when B41 was run?
**A.** 0.838 and 0.817

**Q.** And the Ratio OD(Variant)/OD(WT)?
**A.** 0.972 and 0.948

**Q.** Which OD450 nm does the source give for B42 here?
**A.** 0.747

**Q.** And the Ratio OD(Variant)/OD(WT)?
**A.** 0.995
